Reference: publication PMC5562350

Biological target: Man9-V3 glycopeptide (HIV-1 (strain not stated))

Molecule | Kd [µM]
DH270.1 (antibody) | 0.331
DH270.IA2 (antibody) | > 10
DH270.IA3 (antibody) | > 10
DH270.IA4 (antibody) | > 10
DH270.UCA (antibody) | > 10
DH270.6 (antibody, V domains shown) VH: QVQLVQSGAQMKNPGASVKVSCAPSGYTFTDFYIHWLRQAPGQGLQWMGWMNPQTGRTNTARNFQGRVTMTRDTSIGTAYMELRSLTSDDTAIYYCTTGGWISLYYDSSYYPNFDHWGQGTLLTVSS VL: QSALTQPASVSGSPGQSITISCTGTKYDVGSHDLVSWYQQYPGKVPKYMIYEVNKRPSGVSNRFSGSKSGNTASLTISGLRAEDEADYYCCSFGGSATVVCGGGTKVTVL | 0.188
